# Test results taken from paper PMC2175300.
# Columns and labels:
# Test in all cases: fluorescence anisotropy
# [1] = biological target: FOXO3a-DBD S253D (Homo sapiens, UniProt O43524 158-253, S253D)
# [2] = biological target: FOXO3a-DBD K242A (Homo sapiens, UniProt O43524 158-253, K242A)
# [3] = biological target: FOXO3a-DBD K245A (Homo sapiens, UniProt O43524 158-253, K245A)
# [4] = biological target: FOXO3a-DBD RRR/AAA (Homo sapiens, UniProt O43524 158-253, R248A;R249A;R250A)
# [5] = biological target: FOXO3a-DBD 158-240 (Homo sapiens, UniProt O43524 158-240)
# [6] = biological target: FOXO3a-DBD WT (Homo sapiens, UniProt O43524 158-253)
# FOXO3a-DBD WT, sequence (O43524 158-253): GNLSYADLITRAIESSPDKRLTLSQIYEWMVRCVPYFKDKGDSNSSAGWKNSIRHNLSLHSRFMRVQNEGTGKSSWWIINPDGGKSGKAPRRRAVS
# FOXO3a-DBD RRR/AAA, sequence (O43524 158-253 R248A/R249A/R250A): as the sequence (O43524 158-253) above, with R91A, R92A, R93A counted along it
# FOXO3a-DBD S253D, sequence (O43524 158-253 S253D): as the sequence (O43524 158-253) above, with S96D counted along it
# FOXO3a-DBD 158-240, sequence (O43524 158-240): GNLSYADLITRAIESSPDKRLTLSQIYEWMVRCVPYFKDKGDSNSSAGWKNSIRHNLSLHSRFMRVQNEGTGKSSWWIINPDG
# FOXO3a-DBD K245A, sequence (O43524 158-253 K245A): as the sequence (O43524 158-253) above, with K88A counted along it
# FOXO3a-DBD K242A, sequence (O43524 158-253 K242A): as the sequence (O43524 158-253) above, with K85A counted along it
binder,measurement,setting,value
26-bp FOXO consensus FA duplex (dsDNA) DNA 1: CGCATCCTATGTAAACAACTCGAGTC DNA 2: GACTCGAGTTGTTTACATAGGATGCG,Kd,[1],549 ± 55 nM
same,Kd,[2],399 ± 25 nM
same,Kd,[3],511 ± 63 nM
same,Kd,[4],1180 ± 168 nM
same,Kd,[5],1490 ± 197 nM
same,Kd,[6],295 ± 26 nM
